Measured values published in patent US20200255508A1 (AbbVie / Abbott, published 2020).

What was measured:
[1] = target: T1, human DLL4 extracellular domain (human, UniProt Q9NR61 27-529); assay: Biacore SPR;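 note: surface plasmon resonance on a Biacore instrument, antibodies captured on immobilized anti-human Fc, purified recombinant DLL4 extracellular domain injected as analyte, binding followed over time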
T1 construct: extracellular domain; coated on plates in the sVEGFR1 assay; also called huDLL4 ECD; Human DLL4 ECD
Method: (§1) Binding of DLL4 antibodies to a purified recombinant DLL4 extracellular domain is determined by surface plasmon resonance-based measurements with a Biacore® instrument (either a Biacore 2000, Biacore 3000, or Biacore T100, GE Healthcare, Piscataway, N.J. US) using running buffer HBS-EPB (10 mM HEPES [pH 7.4], 150 mM NaCl, 3 mM EDTA, 0.1 mg/ml BSA and 0.005% surfactant P20) at 25° C. For example, approximately 9000 RU of goat anti-human Fc specific polyclonal antibody (Thermo Fisher Scientific Inc., Rockford, Ill., US) diluted in 10 mM sodium acetate (pH 4.5) is directly immobilized across a CM5 research grade biosensor chip using a standard amine coupling kit according to manufacturer's instructions and procedures at 25 μg/ml. Unreacted moieties on the biosensor surface are blocked with ethanolamine. For kinetic analysis, rate equations derived from the 1:1 Langmuir binding model are fitted simultaneously to multiple antigen injections (using global fit analysis) with the use of Scrubber 2 (BioLogic Software). […] The equilibrium dissociation constant KD (M) of the reaction between antibodies and the target antigen is then calculated from the kinetic rate constants by the following formula: KD=Koff/Kₒₙ. Binding is recorded as a function of time and kinetic rate constants are calculated. In this assay, on-rates as fast as 10⁶ M⁻¹s⁻¹ and off-rates as slow as 10⁻⁶ s⁻¹ can be measured.

[2] = target: T2, mouse DLL4 extracellular domain (mouse, UniProt Q9JI71 27-532); assay: Biacore SPR;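 note: surface plasmon resonance on a Biacore instrument, antibodies captured on immobilized anti-human Fc, purified recombinant DLL4 extracellular domain injected as analyte, binding followed over time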
T2 construct: extracellular domain; also called muDLL4 ECD; Mouse DLL4 ECD
T2 sequence (Q9JI71 27-532): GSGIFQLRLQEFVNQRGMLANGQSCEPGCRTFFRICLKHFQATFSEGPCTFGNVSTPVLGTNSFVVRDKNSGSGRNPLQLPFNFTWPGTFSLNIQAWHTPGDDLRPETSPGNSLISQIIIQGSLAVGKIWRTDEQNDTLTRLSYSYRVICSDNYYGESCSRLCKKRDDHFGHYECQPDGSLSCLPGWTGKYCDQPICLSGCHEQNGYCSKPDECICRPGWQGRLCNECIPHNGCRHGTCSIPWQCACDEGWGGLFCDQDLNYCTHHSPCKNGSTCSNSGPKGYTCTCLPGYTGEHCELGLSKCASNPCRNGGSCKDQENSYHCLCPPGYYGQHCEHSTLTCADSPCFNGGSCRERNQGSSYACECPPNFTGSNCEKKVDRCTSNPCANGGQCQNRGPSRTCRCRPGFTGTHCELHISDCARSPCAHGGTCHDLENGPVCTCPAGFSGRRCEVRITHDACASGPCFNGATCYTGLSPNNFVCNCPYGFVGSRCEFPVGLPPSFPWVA
Method: as §1

Row | Binder | Kd [1] | koff [1] | kon [1] | Kd [2] | koff [2] | kon [2] | binding result [2]
1 | E9.13 (antibody, V domains shown, also called DLL4-E9-13 hIgG1/L) VH: EVQLQESGPGLVKPSETLSLTCTVSGGSISSSSYYWGWIRQPPGKGLEWIGDIYYTGSTYYNPSLKSRVTISVDTSKNQFSLKLSSVTAADTAVYYCAREDVILRGGSDYWGQGTLVTVSS VL: SYELTQPPSVSVSPGQTASITCSGDTLGDKYVSWYQQKPGQSPVLVIYEDSERPSGIPERFSGSNSGDTATLTISGTQPMDEADYYCQAWDSETGVFGSGTKVTVL | 1.33 nM | 4.97e-05 s⁻¹ | 37400 M⁻¹ s⁻¹ | 4.89 nM | 0.000212 s⁻¹ | 43400 M⁻¹ s⁻¹ | 
2 | E9.14 (antibody, V domains shown, also called DLL4-E9-14 hIgG1/L) VH: EVQLQESGPGLVKPSETLSLTCTVSGGSISNSRYHWGWIRQSPGKGLEWIGDIYYTGSTYYNPSLKSRVTISVDTSKNQFSLKLSSVTAEDTAVYYCAREDVILRGGSDYWGQGTLVTVSS VL: SYELTQPPSVSVSPGQTASITCSGQRLGDKYASWYQQKPGQSPVLVIYEDSKRPSGIPERFSGSNSGDTATLTISGTQPMDEADYYCQAWDRDTGVFGYGTKVTVL | 9.14 nM | 0.000365 s⁻¹ | 39900 M⁻¹ s⁻¹ | 3.49 nM | 0.000136 s⁻¹ | 38900 M⁻¹ s⁻¹ | 
3 | E9.18 (antibody, V domains shown, also called DLL4-E9-18 hIgG1/L) VH: EVQLQESGPGLVKPSETLSLTCTVSGGSISSSGYYWGWIRQPPGKGLEWIGDINYAGSTYYNPSLKSRVTISVDTSKNQFSLKLSSVTAADTAVYYCAREDVILRGGSDYWGQGTLVTVSS VL: SYELTQPPSVSVSPGQTASITCSGQRLGDKYASWYQQKPGQSPVLVIYEDSKRPSGIPERFSGSNSGDTATLTISGTQPMDEADYYCQAWDRDTGVFGYGTKVTVL | 1.18 nM | 1.84e-05 s⁻¹ | 15700 M⁻¹ s⁻¹ | 0.73 nM | 1.68e-05 s⁻¹ | 23200 M⁻¹ s⁻¹ | 
4 | E9.65 (antibody, V domains shown) VH: EVQLQESGPGLVKPSETLSLTCTVSGGSIRNSRYHWGWIRQPPGKGLEWIGDIYYTGSTYYNPSLKGRVTISVDTSKNQFSLKLSSVTAADTAVYYCAREDVILRGGSDYWGQGTLVTVSS VL: SYELTQPPSVSVSPGQTASITCSGQRLGDKYASWYQQKPGQSPVLVIYEDSKRPSGIPERFSGSNSGDTATLTISGTQPMDEADYYCQAWDRDTGVFGYGTKVTVL | 14 nM | 0.000363 s⁻¹ | 25900 M⁻¹ s⁻¹ | 5.27 nM | 0.000136 s⁻¹ | 25700 M⁻¹ s⁻¹ | 
5 | A10.L45 (antibody, V domains shown) VH: EVQLVESGGGLVKSGGSLRLSCAASGFTFRSHWMSWVRQAPGKGLEWVAIISYDGSNKYSADSVKGRFTISRDNSKNTLYLQLNSLRAEDTAVYYCAKAGGGNVGFDIWGQGTMVTVSS VL: SYELTQPPSVSVSPGQTASITCSADELGTQYVSWYQQKPGQSPVLVIYQDATRPSGIPERFSGSNSGNTATLTISGTQAMDEADYYCQAWDRSGVVFGGGTKLTVL | 0.72 nM | 3.16e-05 s⁻¹ | 44000 M⁻¹ s⁻¹ |  |  |  | no binding
6 | A10.L73 (antibody, V domains shown) VH: EVQLVESGGGLVKSGGSLRLSCAASGFTFRSHWMSWVRQAPGKGLEWVAIISYDGSNKYSADSVKGRFTISRDNSKNTLYLQLNSLRAEDTAVYYCAKAGGGNVGFDIWGQGTMVTVSS VL: SYELTQPPSVSVSPGQTASITCSGDNLGSQYVSWYQQKPGQSPVLVIYQDAQRPSGIPERFSGSNSGNTATLTISGTQAMDEADYYCQAWDRSGVVFGGGTKLTVL | 0.19 nM | 9.5e-06 s⁻¹ | 50700 M⁻¹ s⁻¹ |  |  |  | no binding
7 | A10.K30 (antibody, V domains shown) VH: EVQLVESGGGVVQPGGSLRLSCAASGFTFGNHWMSWVRQAPGKGLEWVADISSDGRYKYYADSVKGRFTISRDNSKNTLYLQLNSLRAEDTAVYYCAKAGGGNVGFDIWGQGTMVTVSS VL: SYELTQPPSVSVSPGQTASITCSADKLGTKYVSWYQQKPGQSPVLVIYQDAKRPSGIPERFSGSNSGNTATLTISGTQTMDEADYLCQSWDRSDVVFGGGTKLTVL | 7.69 nM | 0.000274 s⁻¹ | 35700 M⁻¹ s⁻¹ |  |  |  | no binding
